{"source": "paper PMC6572100", "about": "“Structure of the Prx6-subfamily 1-Cys peroxiredoxin from Sulfolobus islandicus” (Acta Crystallographica. Section F, Structural Biology …, 2019)", "key": {"[1]": {"target": "the molecule itself", "assay": "SEC; Superdex 200, about 2 mg protein, 50 mM Na2HPO4 pH 7.4, 150 mM NaCl; untreated protein; molecular-weight standard curve"}, "[2]": {"target": "the molecule itself", "assay": "crystal structure; hanging-drop vapor diffusion, 7.5 mg/ml protein in 10 mM Tris-HCl pH 7.5; reservoir 10 mM Tris-HCl pH 7.5, 15% PEG 1500, 0.1 M MgCl2, 283 K; 2.75 Å, space group P212121, ten monomers in the asymmetric unit"}}, "data": [{"protein": "Sulfolobus islandicus 1-Cys peroxiredoxin (1-Cys SiPrx) (enzyme, Sulfolobus islandicus REY15a, The residue numbers printed in the text (Cys49, His41, Lys24) are one lower than the positions in the printed construct (C50, H42, K25); surmise: the V at position 2 comes from the NcoI cloning site; Decamer (five homodimers) in the crystal and in solution; also called S. islandicus Bcp2; SiRe_0346; source: E. coli Rosetta, purified (HisTrap FF, dialysis); not shown: His6, C-terminal, kept; …) MVSEGRIPLIGEKFPEMEVITTHGKIKLPDDYKGRWFVLFSHPGDFTPVCTTEFYSFSKKYEEFKKLNTELIGLSVDSNISHIEWVMWIEKNLKVEVPFPIIADPMGNVAKRLGMIHAESSTATVRAVFIIDDKGTVRLILYYPMEIGRNIDEILRAIRALQLVDKAGVVTPANWPNNELIGDKVINPAPRTIKDAKMRLGQPFDWWFTYKEVKTT", "values": [{"measurement": "stoichiometry N", "setting": "[1]", "value": "~20", "unit": "subunits"}, {"measurement": "stoichiometry N", "setting": "[2]", "value": 10, "unit": "subunits"}]}]}
